Source: patent publication US9803013B2, “Biological materials and uses thereof” (BioInvent International AB, priority 2005, dated 2017)

Key:
Ramos B lymphoma cells = test: scFv apoptosis assay (cross-linked, 24 h, Annexin V/PI); assay type: cell-based, human
Protocol: Ramos B lymphoma cells were sequentially incubated with anti-Ramos scFv, anti-His mAb, and anti-mouse polyclonal Ab on ice (with intermittent washing to remove excess unbound antibody), and were incubated in a humidified atmosphere of 5% CO2 at 37° C. for 24 hours. Cells were then harvested and subjected to combined staining with Annexin V-AF488 (AV) and propidium iodide (PI). Cells were scored as viable (AV− PI−, filled circles FIG. 2C), early apoptotic (AV+PI−, open triangles FIG. 2C), or late apoptotic/necrotic (AV+PI+, open diamonds FIG. 2C), based on differential positivity for AV and PI staining (defined by square gates in FIG. 2B). […]
Lipopolysaccharide levels of recombinantly produced scFv fragments were reduced using Detoxigel columns according to manufacturer's instructions (Pierce Biotechnology, Rockford, Ill., USA). Remaining endotoxin levels were quantified by the LAL-amebocyte lysate assay (Cambrex Bioscience, Walkersville, Md., USA). […]
Apoptotic cells were, unless otherwise stated, detected by combined staining with Annexin V Alexa Fluor 488 (AV) and Propidium Iodide (PI) (both from Molecular Probes, Invitrogen) and subsequent flow-cytometric analysis, Cells were defined as viable (AV−/PI−), early apoptotic (AV+/PI−) or late apoptotic/necrotic (AV+/PI+). […]

Raji B lymphoma cells = test: as above; assay type: cell-based, human

B1: scFv B11: scFv clone isolated by differential biopanning, later converted to B11 IgG1 (protein)
scFv (part 1 of 2): EVQLLESGGGLVQPGGSLRLSCAASGFTFSNAWMSWVRQAPGKGLEWVAFIWYDGSNKYYADSVKGRFTISRDNSKNTLYLQMNSLRAEDTAVYYCARYSGWYFDYWGQGTLVTVSS
scFv (part 2 of 2): QSVLTQPPSASGTPGQRVTISCTGSSSNIGAGYDVHWYQQLPGTAPKLLIYDNNNRPSGVPDRFSGSKSGTSASLAISGLRSEDEADYYCQSYDSSLSAWLFGGGTKLTVLG
modifications: left off: small tags and cut ends
notes: scFv clone isolated by differential biopanning, later converted to B11 IgG1
apoptosis induction by scFv (Ramos B lymphoma cells): induced significant apoptosis | apoptosis induction by scFv (Raji B lymphoma cells): induced significant apoptosis
